A protein production outcome set (Wang et al. 2014)

Test: label from the status in PepcDB records
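Note: failed if final PepcDB status was selected cloned or expressed and not failed if soluble or beyond.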

In the case of “MSSRTVLAPGNDRNSDTHGTLGSGRSSDKGPSWSSRSLGARCRNSIASCPEEQPHVGNYRLLRTIGKGNFAKVKLARHILTGREVAIKIIDKTQLNPSSLQKLFREVRIMKGLNHPNIVKLFEVIETEKTLYLVMEYASAGEVFDYLVSHGRMKEKEARAKFRQIVSAVHYCHQKNIVHRDLKAENLLLDAEANIKIADFGFSNEFTLGSKLDTFCGSPPYAAPELFQGKKYDGPEVDIWSLGVILYTLVSGSLPFDGHNLKELRERVLRGKYRVPFYMSTDCESILRRFLVLNPAKRCTLEQIMKDKWINIGYEGEELKPYTEPEEDFGDTKRIEVMVGMGYTREEIKESLTSQKYNEVTATYLLLGRKTEEGGDRGAPGLALARVRAP”, the protein production is reported as “failed”.

With “MFRLEDFNFHNKTVFLRVDLNSPMKDGKIISDARFKAVLPTIRYLIESGAKVVIGTHQGKPYSEDYTTTEEHARVLSELLDQHVEYIEDIFGRYAREKIKELKSGEVAILENLRFSAEEVKNKPIEECEKTFLVKKLSKVIDYVVNDAFATAHRSQPSLVGFARIKPMIMGFLMEKEIEALMRAYYSKDSPKIYVLGGAKVEDSLKVVENVLRRERADLVLTGGLVANVFTLAKGFDLGRKNVEFMKKKGLLDYVKHAEEILDEFYPYIRTPVDFAVDYKGERVEIDLLSENRGLLHQYQIMDIGKRTAEKYREILMKARIIVANGPMGVFEREEFAIGTVEVFKAIADSPAFSVLGGGHSIASIQKYGITGITHISTGGGAMLSFFAGEELPVLRALQISYEKFKEVVK” the protein production was “not failed”.

With “MRYLADHDDLTGLHNRRALLQHLDQRLAPGQPGPVAALFLDLDRLKAINDYLGHAAGDQFIHVFAQRIGDALVGESLIARLGGDEFVLIPASPMSADAAQPLAERLRDQLKDHVAIGGEVLTRTVSIGVASGTPGQHTLEHHHHHH” the protein production was “not failed”.

With “QSNQAWFGNDAFFNAVCFNEAVAKQLNLPKPTSWEDLTKPVYKGHIVMPNPASSGTGYMQVSAWLQNMGEDQAWNYMRDLDKNIAHYTHSGSKPCVQAGMGEVAIGISMASRGAKLKTQGAPLAVITPKGIGWESEAVGLVKESDAAKRVVDWSISKAANELYVEMYPVVGH” the protein production was “failed”.

With “EEKYVTVQPYTSQSKDEIGFEKGVTVEVIRKNLEGWWYIRYLGKEGWAPASYLKKAKD” the protein production was “not failed”.

In the case of “MDLSSKPQQQLLNSLPIAGELTVTGEMGVCYKECLKNHAANLGGHALDGCGEFMPSPTATSTDPSSLRCAACGCHRNFHRRDPSENLNFLTAPPISSPSGTESPPSRHVSSPVPCSYYTSAPPHHVILSLSSGFPGPSDQDPTVVRSENSSRGAMRKRTRTKFTPEQKIKMRAFAEKAGWKINGCDEKSVREFCNEVGIERGVLKVWMHNNKYSLLNGKIREIEHGLCLNTHSNDGDGSSSS”, the protein production is reported as “not failed”.

With “MKIFAVVVTYNRLALLKKVIDLLKRQTRQLDSIVIVNNGSTDGTKEWLEQEKNITLINQSNSGGAGGFETGVKYAYENEADWIWMMDDDVFPNIDCLEKLLGWTSISQCIQPRRYYSDDVEVNFEQWLDPITYSKFGYWQEKSFNNGKKFCAINVGCFEGMFVSKSIVNKIGFPDKRFFIAEDDTIYGFAASFYTNVILVSDAIMVRARRSSDRSVSPMYTYYACRNFHLVYESLNLLLDKKNRFLYIKYIYQFVHQIYLSIFLYDNKMKHLISVFRGFYDCFRKKNGATYLEHHHHHH” the protein production was “failed”.

In the case of “MDTGPDQSYFSGNHWFVFSVYLLTFLVGLPLNLLALVVFVGKLRCRPVAVDVLLLNLTASDLLLLLFLPFRMVEAANGMHWPLPFILCPLSGFIFFTTIYLTALFLAAVSIERFLSVAHPLWYKTRPRLGQAGLVSVACWLLASAHCSVVYVIEFSGDISHSQGTNGTCYLEFWKDQLAILLPVRLEMAVVLFVVPLIITSYCYSRLVWILGRGGSHRRQRRVAGLVAATLLNFLVCFGPYNVSHVVGYICGESPVWRIYVTLLSTLNSCVDPFVYYFSSSGFQADFHELLRRLCGLWGQWQQESSMELKEQKGGEEQRADRPAERKTSEHSQGCGTGGQVACAEN”, the protein production is reported as “failed”.

In the case of “MANIKIRQETPTAFYIKVHDTDNVAIIVNDNGLKAGTRFPDGLELIEHIPQGHKVALLDIPANGEIIRYGEVIGYAVRAIPRGSWIDESMVVLPEA”, the protein production is reported as “not failed”.

With “MNKPYFIAFLLSLALWTVIPSVFAGDVVLKVFEGKPRINSPHITGNYPSTPFIFYIPTSGQRPMQWSAEKLPEGLELDSKTGIISGVMTSKGDYTVTLKAENALGVSVKQLVIRIGDELLLTPPMGWNSWNTFGQHLTEELVLQTADAMITNGMRDLGYSYINIDDFWQLPERGADGHLQIDKTKFPRGIKYVADYLHERGFKLGIYSDAAEKTCGGVCGSYGYEETDAKDFASWGVDLLKYDYCNAPVDRVEAMERYAKMGRALRATNRSIVYSVCEWGQREPWKWAKQVGGHLWRVSGDIGDIWYRDGNRVGGLHGILNILEINAPLSEYAGPSGWNDPDMLVVGIDGKSMSIGYESEGCTQEQYKSHFSLWCMMASPLLSGNDVRNMNDSTLKILLDPDLIAINQDVLGRQAERSIRSDHYDIWVKPLADGCKAVACFNRASSPQTVILNENTIADLSFEQIYCLDSHLTKSGSDSKELIVKLAPYQCKVYILGKTDLEHHHHHH” the protein production was “failed”.

For “MTTFHADSSITRTFWRYAIPSIAAMVVSGLYQIIDGIFVGHYIGFEGLAGINMAWPAICILGAIGVMVGMGTGSVMSIYRGENKLEKTKVALTTGFWLLAILSIIAISCIVLLAKDILLAQGAEGQNFAYAMDYINVLMFGGFFTACATALPMLVRNDESPNVATFLLVIGALINIVLDYVFIGVMGLGLSGAALATLMAQACVTVLGIGYFFTQRSSIQITLQEVLFSWNKAKQSLSLGASALVMYLYGSFVVAMHNALMMYYGSATTVGAYAIVGYLFMLYYLLAQGIAEGAQPPISYYFGARENKKVYQIFKIALKWVIITGIGWVTILNISPELTTALFTNGDKALIAETIVGIRYHLFAMFLDGMIVLITIYFLSVNEGKKAMVISISNIVIQLPFLLILPKWFGIDGVWLAMPVSNIALIICIAPMVWNHLKTQKIIKPLPLTSTSVMSH”, the protein production was “failed”.

With “MRAAVRTRIVATYLAVAALWGSTWMAIRIGLEDLPPLRFAGVRMAIAALVLAPFALRGGAWREVVGPARAQLALVAVLQIALPYGLMFVAQQWVPSGLAAVLFASFPVWIALLARALVPGETLTPARVASALLGIAGVAVLQLPHLGDLEGSGRLLLGGALVVLSSMIVALANVLVRRHLAAVSPLAMTAGQTAVGAVLLLAAAALLEQGRPAAFTASAVAALAWLAVFGTALTYVGLYWLVPRVPMAAIGALPLLDTSVAVTLGALVLHEPVGWNLALGGGMVLAAAALTIPRRR” the protein production was “failed”.

With “MLLPRMLEEVVLAVPARDYDRVVAGLAVEGIFHVDSPPQGVKGEVDRSYRALLTQASERSSRIRQYFDLAGVEPYRVSGVEIEVGGWGESWKRYLEKYSGVEKFYSGLLEEYSEAEARLKELLDIEARIAPVAHLDVDIARLYRSGAFDFAVYYGSYSEGLESRVGEIVSRVGGLAAVEASGGSVVVAVAVPKGALSKISPEILRLNLSIYTPPEGVPGSPREAMEYIRGEKARLGRRLVSIQEMASERLGELAEFYTVVTAFENIFKFLVSTLRRGETRIVRGFVDVRDSGRLRSIVDRMTRGSYVLLSLGVRRGGEAPIPSKVDLPQFLKPFSRVVELYGYPEPNEIVPTVFLAITLPLTFALMFPDAGQGLLVLLFSLFYLRRVSRDWAYVIAVMGGASVVSGLLAGEVFGPLVSKMLGLPELWYRLGLETPPYAMPTYAIDHGEEELVPVLVYRALNVSLFMGAFMLSFGTFLGVVNGVIKRDWVGLVESRLPRFLLFASITGPFLVYMDAGEAGSVLRQALLELGGDSIAAKLVLAGSVLGLAWMLLAGPIIYMLEGHSPLAGLANSFLEAYESLLMLVGNIPSFLRIMALALAHSSLMFVIYYLTVMIMQGGILADVVGALLYVGGNLAVAAMEGLLAFAHASRLHFYEWFSKFYSGTGVPYTPIKVEGVRIKIAGQTF” the protein production was “failed”.

With “MRTIWLVFIANFKRAYSNKKKFFINLLVPVAAIILAIVVNYVSSPSLNIGVNEKIKSKGGDRIVKMLKHTRGINAKVCHGELMKTEVILGKYDAVVTIKRKLGKNSFNNMSKYFEFYNVRDKKTNEDMKKLIKAYLVQNKTLNMERIVKDEQIGGLSKSERIIAFLATVLLITSVVNGAVIIRDREENTYYRYMYSPNSKFEYIFGNVIYNYIFSYIQLFIANSLMAIFGIYIGISFLKMLSYGLILTLVMTTFGTFIVCIFNKELYANMFSAAISLILSLVGGTFINYKIMPEGLRRISDVTPNRWIIKSVQYMQNGRFGSINPMMVLIAFSIMFSLAAVLVSKFHKVQFK” the protein production was “failed”.

With “MATRRLTDAFLLLRNNSIQNRQLLAEQVSSHITSSPLHSRSIAALADDRMALVSGISLDPEAAIGVTKRPPPKWVDGVDEIQYDVGRIKQKMKELASLHDKHLNRPTLDDSSEEEHAIEITTQEITQLFHRCQRAVQALPSRARACSEQEGRLLGNVVASLAQALQELSTSFRHAQSGYLKRMKNREERSQHFFDTSVPLMDDGDDNTLYHRGFTEDQLVLVEQNTLMVEEREREIRQIVQSISDLNEIFRDLGAMIVEQGTVLDRIDYNVEQSCIKTEDGLKQLHKAEQYQKKNRKMLVILILFVIIIVLIVVLVGVKSR” the protein production was “failed”.

For “MSAEFIDSLAVMLLALGMTTAIGGMYFLFSALGNEKRIEGLLMPAVGVGLFDFMSGFVMSFTWPLPSSYNMLFGDPLLMAGLLLMISAIAYYKHYDISSVSILLFFLGIYVIIEAVGIVNYHLESGDNLLAAMGLYIVDGIAAILSPIMYIDQKKGKIAYMIEAAILIIGTLIALFIGYTAIYGHLLDFIKYFP”, the protein production was “failed”.

For “MSSVGDFEEIILHDLKPYYHVPGAIHSEGITFVKETGTLLWVDIFKGEVHKVEDIEQPESSHSFFSISRANYGKNASIEYPPNPDELKESVGCIFPILDGASQNEIKQVLFGSKFGIGKLDFSKSEWEYVILYSECPELSTDRAYKLRSNDGNVSPDGKYIYVGLMSDFPFDLEPIGCLLRVDLLAHKIELVWNCLLIPNAIHWDESDQKTMYVTDSLNFTIWKCPGGDLLKRDELIDVKNSNNQSFESPEPDGSAIWFSKDGKHSGFLFITVWSTSKVQMFDLTNGKLLKEFILPEQTPRVSCCCFVGKDLFVTTANAEINDAVRTNTDKNGGCIYKIPNVLDGNVPLESTKRQPLH”, the protein production was “failed”.

With “MFKALLPQSKQKLQHAKYFAKKMHQASASDQLQSHWHLQQWWILIAGFFLFGSVLVFAFTRPISSTKIEAEYLKEVDPQIYTLLNGEMLTPPPEVDESLISAAIVEANQLEQQYASQHSETNAPSASENLMHHNLIDTQFVDRKWDKMNPRYKQRLLMVFKIMKERYGYELVLLEGYRSPERQNLLSGNPNTTRARGYQSYHQFGLAADVAFKRNGKVVISERDPWAMRGYQLYGEVAESVGLTWGGRWKSIQDYGHTEYRMPGLRKTKEMAEQLIAEGQLTANAAS” the protein production was “failed”.

For “MDRLSYAIGDKAVLNNIRVQFQPGSVTALLGPNGAGKSTLLKALCQEIPSAQGSIKLGHCQLVDWPRAELAKSLAVLPQHASLTFPFTVDEVVAMGLYPLTLSQKEGQQLVTKWLAEVGVLHLARRSYPTLSGGEKQRVQLARVLTQLSQSPFPPILLLDEPTSALDLAQQHKVLALAKNLAHKHAYTVIVVLHDLNQAARYSDRVIVLKQGEIVSEGTPNDALSIDIIRQVWDYEPEFIPAPQGDYPLIF”, the protein production was “failed”.

With “MSAHRPAAATPAAAAPSKRERFLSLDVFRGLTIFLMILVNTAGPGAQAYAQLTHAAWFGFTLADLVFPSFLFAVGSAMSFALATNTPHLQFLGRVSRRAALILLCGVLMYWFPFFHLQPDGGWAFTTVDQLRLTCVLQRIGLCYLAAALLVRYLPPRGIAPVCLALLLGYWALLYAFGQPGAELSKTGNAGTRLDLWLYGRDHLYRKDGGFDPEGLLGTLSATVNVLAGYLCGRFLQRHGKTIASTRSLLLAGAGLVLLALLWAPAWPLSKKLWSGSFVACTVGLDLLALGALVYLLELRGWTGGSGFFTVLGRNPLAIYLFSELFVVVLRLIPAGSSGLDLYAWAGIGVFQTIAPGPLGSLLCALSYTLMCCAVGWWMDRRRWYLRL” the protein production was “failed”.
